± gives the standard deviation of the averaged measurements.
Tested on: ATP
Test: switch fluorescence ratio, 500 uM ATP over buffer (Cy3 cluster intensity, sum of 5 cycles each) (fold (ratio)); higher = stronger signal-on switching upon ATP binding; sequences stand for … in TCGTCGGCAGCGTCAGATGTGTATAAGAGACAGTTTTTTTTTTTTTTTTTTTTTTTTT…TC
Settings: aptamer strand: ATP DNA aptamer (quencher-CACCTGGGGGAGTATTGCGGAGGAAGG + anchor), 100 nM annealed; ATP concentration: 500 uM
How it was run: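 The quencher-labelled ATP aptamer, at 100 nM, was annealed to Cy3-labelled switching-strand clusters on a modified Illumina MiSeq flow-cell. The clusters were imaged in selection buffer, then after 15 min with 500 uM ATP at 22 °C, and this buffer/ATP cycle ran five times with NaOH stripping and re-annealing between runs. Per-cluster fluorescence ratios, summed target-cycle over summed buffer-cycle Cy3 intensity, were averaged per switch-domain sequence. Clusters outside 100-1000 RFU were excluded.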
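Also: ATP exposure 15 min at 22 °C before imaging.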

| Sequence | switch fluorescence ratio |
| --- | --- |
| TCGGAGGGAA | 1.03 ± 0.027 |
| TCGGAGGGGA | 1 ± 0.02 |
| TCGGAGGTCC | 0.958 ± 0.029 |
| TCGGAGTCTC | 1.127 ± 0.0029 |
| TCGGATAAGT | 1.01 ± 0.034 |
| TCGGATTAAT | 1.05 ± 0.043 |
| TCGGATTGGC | 0.985 ± 0.034 |
| TCGGATTTGT | 1.01 ± 0.041 |
| TCGGCCAGGT | 1.5 ± 0.046 |
| TCGGCGAAGG | 1.01 ± 0.082 |
| TCGGCGGTCT | 0.999 ± 0.025 |
| TCGGCGGTGG | 0.963 ± 0.05 |
| TCGGGAACGC | 1.04 ± 0.032 |
| TCGGGAGCAG | 1.03 ± 0.054 |
| TCGGGAGTCA | 1.011 ± 0.0091 |
| TCGGGATCCT | 1.35 ± 0.51 |
| TCGGGCCCGG | 1 ± 0.078 |
| TCGGGGAGAA | 0.992 ± 0.073 |
| TCGGGGATAT | 3.05 ± 2.9 |
| TCGGGGATG | 1.52 ± 0.83 |
| TCGGGGCCGA | 0.969 ± 0.01 |
| TCGGGGCCGG | 0.964 ± 0.037 |
| TCGGGGGAAA | 0.994 ± 0.036 |

| Sequence | switch fluorescence ratio |
| --- | --- |
| TCGGGGGATA | 0.98 ± 0.039 |
| TCGGGGGCGG | 1.02 ± 0.078 |
| TCGGGGGGAG | 1.01 ± 0.018 |
| TCGGGGGTAT | 1.2 ± 0.36 |
| TCGGGGGTCA | 0.9781 ± 0.0051 |
| TCGGGGGTTT | 1 ± 0.038 |
| TCGGGTATCG | 0.976 ± 0.037 |
| TCGGGTATTC | 1.06 ± 0.14 |
| TCGGGTCCAT | 1 ± 0.026 |
| TCGGGTGGGG | 1.01 ± 0.014 |
| TCGGGTTGGG | 0.975 ± 0.023 |
| TCGGGTTTTT | 1 ± 0.03 |
| TCGGTAAATT | 1.05 ± 0.014 |
| TCGGTACATA | 1.037 ± 0.0066 |
| TCGGTAGTG | 0.985 ± 0.028 |
| TCGGTATGAC | 1.07 ± 0.029 |
| TCGGTATGTG | 1.03 ± 0.045 |
| TCGGTCAAAT | 0.977 ± 0.011 |
| TCGGTCACCA | 1.05 ± 0.028 |
| TCGGTCCGTT | 0.9492 ± 0.0027 |
| TCGGTCCTTT | 0.99 ± 0.029 |
| TCGGTCTAAC | 1 ± 0.015 |
| TCGGTGACGG | 1.01 ± 0.017 |

| Sequence | switch fluorescence ratio |
| --- | --- |
| TCGGTGGGGC | 1.01 ± 0.019 |
| TCGGTGGTGG | 0.997 ± 0.019 |
| TCGGTGTCGC | 0.9621 ± 0.0031 |
| TCGGTTAGTA | 0.9883 ± 0.0021 |
| TCGGTTCAGC | 1.011 ± 0.0024 |
| TCGGTTCCCG | 0.981 ± 0.018 |
| TCGGTTTGTT | 1 ± 0.0029 |
| TCGTAAAATT | 0.986 ± 0.026 |
| TCGTAACACT | 1.16 ± 0.0057 |
| TCGTAAGTAA | 1.04 ± 0.0094 |
| TCGTAATAGT | 1.62 ± 0.068 |
| TCGTAATGGT | 1.05 ± 0.083 |
| TCGTACGTGG | 0.998 ± 0.016 |
| TCGTAGAATA | 1.01 ± 0.032 |
| TCGTAGGGGT | 0.995 ± 0.018 |
| TCGTATTTTC | 0.994 ± 0.058 |
| TCGTCGATTC | 1.12 ± 0.02 |
| TCGTCGCTTT | 1.04 ± 0.026 |
| TCGTCGTGGG | 1.02 ± 0.025 |
| TCGTCTGCGG | 1.04 ± 0.03 |
| TCGTGAGGTT | 1.01 ± 0.012 |
| TCGTGAGTAG | 0.973 ± 0.017 |
| TCGTGAGTTT | 0.996 ± 0.035 |

| Sequence | switch fluorescence ratio |
| --- | --- |
| TCGTGGCGGA | 0.979 ± 0.011 |
| TCGTGGTGGT | 0.974 ± 0.018 |
| TCGTGTACTG | 1.041 ± 0.006 |
| TCGTGTGGGG | 1.02 ± 0.048 |
| TCGTGTTACT | 1.005 ± 0.008 |
| TCGTTACCTT | 1.135 ± 0.0013 |
| TCGTTAGGGG | 0.999 ± 0.019 |
| TCGTTATCTT | 0.979 ± 0.013 |
| TCGTTATGTA | 0.992 ± 0.018 |
| TCGTTATTAA | 1 ± 0.012 |
| TCGTTATTGT | 1.01 ± 0.021 |
| TCGTTATTTG | 1.004 ± 0.0078 |
| TCGTTCAGCG | 0.997 ± 0.019 |
| TCGTTCGTAT | 0.9875 ± 0.004 |
| TCGTTGATGC | 1.08 ± 0.08 |
| TCGTTGATTT | 1.016 ± 0.01 |
| TCGTTGCAGT | 1.02 ± 0.018 |
| TCGTTGCATG | 1.01 ± 0.065 |
| TCGTTGGACT | 1.01 ± 0.0029 |
| TCGTTGGTGG | 0.984 ± 0.06 |
| TCGTTGTTTT | 1.0216 ± 0.00093 |
| TCGTTTAACA | 0.9602 ± 0.0092 |
| TCGTTTATAT | 1.01 ± 0.04 |

| Sequence | switch fluorescence ratio |
| --- | --- |
| TCGTTTGGTA | 0.958 ± 0.027 |
| TCGTTTGGTC | 0.986 ± 0.01 |
| TCGTTTGGTT | 1.04 ± 0.026 |
| TCGTTTTGCC | 0.956 ± 0.02 |
| TCGTTTTGCT | 0.981 ± 0.017 |
| TCTAAAGGGA | 1.03 ± 0.024 |
| TCTAAAGGGT | 0.9988 ± 0.0021 |
| TCTAAATAGG | 0.9908 ± 0.0032 |
| TCTAAGCCAT | 1.05 ± 0.017 |
| TCTAAGGATT | 1.02 ± 0.022 |
| TCTAAGGGGG | 1.015 ± 0.0074 |
| TCTAAGTCCA | 0.989 ± 0.068 |
| TCTACGCACT | 2.62 ± 0.15 |
| TCTACTGGGC | 1.05 ± 0.1 |
| TCTAGAACGC | 1.01 ± 0.013 |
| TCTAGACTCA | 1.18 ± 0.29 |
| TCTAGCCGGT | 0.9878 ± 0.0085 |
| TCTAGGACGT | 1.02 ± 0.019 |
| TCTAGTGGCA | 0.98 ± 0.038 |
| TCTAGTGTGC | 0.9772 ± 0.0086 |
| TCTATCAGGG | 0.995 ± 0.011 |
| TCTATCATGA | 0.988 ± 0.013 |
| TCTATTAGTA | 0.932 ± 0.062 |

| Sequence | switch fluorescence ratio |
| --- | --- |
| TCTATTATAC | 1.23 ± 0.13 |
| TCTATTGAGC | 1.032 ± 0.0049 |
| TCTATTGGA | 0.9949 ± 0.0037 |
| TCTCAAATTT | 0.975 ± 0.029 |
| TCTCAATGCT | 1.21 ± 0.2 |
| TCTCACGGGG | 1.29 ± 0.33 |
| TCTCGGCATT | 1.46 ± 0.23 |
| TCTCGGCTAT | 2.98 ± 0.2 |
| TCTCGTGAGA | 0.997 ± 0.053 |
| TCTCTATAGG | 0.9834 ± 0.0036 |
| TCTCTATGTG | 0.966 ± 0.036 |
| TCTCTATTT | 0.965 ± 0.048 |
| TCTCTGTGTT | 1.027 ± 0.0019 |
| TCTCTGTTGA | 1.01 ± 0.057 |
| TCTGAAAGTC | 0.9963 ± 0.0057 |
| TCTGAAGGAG | 1.01 ± 0.013 |
| TCTGATGGAA | 1.06 ± 0.037 |
| TCTGATTGGT | 0.9945 ± 0.0034 |
| TCTGCATGTT | 1.02 ± 0.012 |
| TCTGGAAGGC | 1.29 ± 0.25 |
| TCTGGAGAGG | 1.01 ± 0.034 |
| TCTGGATTCA | 0.986 ± 0.027 |
| TCTGGATTGG | 0.961 ± 0.029 |

| Sequence | switch fluorescence ratio |
| --- | --- |
| TCTGGCCGGC | 0.986 ± 0.028 |
| TCTGGCGTAA | 1.79 ± 1.1 |
| TCTGGGAAAG | 1 ± 0.013 |
| TCTGGGGCCG | 1.02 ± 0.065 |
| TCTGGGTCGC | 1.02 ± 0.017 |
| TCTGGGTTGG | 1.013 ± 0.0074 |
| TCTGGTGCAT | 1.17 ± 0.14 |
| TCTGGTTAAA | 0.982 ± 0.013 |
| TCTGGTTAGC | 1.03 ± 0.026 |
| TCTGGTTTGG | 1.03 ± 0.049 |
| TCTGTAGCTG | 1.3 ± 0.015 |
| TCTGTAGTTG | 0.997 ± 0.04 |
| TCTGTCCG | 1.05 ± 0.14 |
| TCTGTCTATA | 1.03 ± 0.026 |
| TCTGTCTGAG | 0.988 ± 0.027 |
| TCTGTGCCTT | 1.06 ± 0.069 |
| TCTGTGTACG | 1.04 ± 0.047 |
| TCTGTGTTAT | 1 ± 0.026 |
| TCTGTGTTGA | 1 ± 0.011 |

— the supplement of paper PMC10126150
